Consider ten molecules from paper PMC2814163 (Biochemistry, 2010).

Sequences and labels used below:
B1: Dom1-3His (extracytoplasmic domains 1-3 of the bovine CI-MPR, residues 1-432, C-terminal His6) (domain or fragment, UniProt P08169 45-476, looked up)
chain: AAGTQGAEFPELCSYTWEAVDTKNNMLYKINICGNMGVAQCGPSSAVCMHDLKTDSFHSVGDSLLKTASRSLLEFNTTVNCKQQNHKIQSSITFLCGKTLGTPEFVTATDCVHYFEWRTTAACKKNIFKANKEVPCYAFDRELKKHDLNPLIKTSGAYLVDDSDPDTSLFINVCRDIEVLRASSPQVRVCPTGAAACLVRGDRAFDVGRPQEGLKLVSNDRLVLSYVKEGAGQPDFCDGHSPAVTITFVCPSERREGTIPKLTAKSNCRFEIEWVTEYACHRDYLESRSCSLSSAQHDVAVDLQPLSRVEASDSLFYTSEADEYTYYLSICGGSQAPICNKKDAAVCQVKKADSTQVKVAGRPQNLTLRYSDGDLTLIYFGGEECSSGFQRMSVINFECNQTAGNNGRGAPVFTGEVDCTYFFTWDTKYACV

Where two headings read alike, the source gives them in different places.

What all share (assay): SPR
A general note: In SPR one partner is held on a chip, and binding of the other changes the refractive index at the surface.

One assay addresses human prothrombin (human, plasma-purified zymogen; gamma-carboxyglutamate in Gla domain, N-glycosylated, disulfides (by convention, not given)).
Assay [1] concerns the target T1, human β-glucuronidase (human, UniProt P08236 23-651, mannose 6-phosphate on its glycans (Man-6-P-containing lysosomal enzyme; nonphosphorylated enzyme removed)).
T1 sequence (looked up): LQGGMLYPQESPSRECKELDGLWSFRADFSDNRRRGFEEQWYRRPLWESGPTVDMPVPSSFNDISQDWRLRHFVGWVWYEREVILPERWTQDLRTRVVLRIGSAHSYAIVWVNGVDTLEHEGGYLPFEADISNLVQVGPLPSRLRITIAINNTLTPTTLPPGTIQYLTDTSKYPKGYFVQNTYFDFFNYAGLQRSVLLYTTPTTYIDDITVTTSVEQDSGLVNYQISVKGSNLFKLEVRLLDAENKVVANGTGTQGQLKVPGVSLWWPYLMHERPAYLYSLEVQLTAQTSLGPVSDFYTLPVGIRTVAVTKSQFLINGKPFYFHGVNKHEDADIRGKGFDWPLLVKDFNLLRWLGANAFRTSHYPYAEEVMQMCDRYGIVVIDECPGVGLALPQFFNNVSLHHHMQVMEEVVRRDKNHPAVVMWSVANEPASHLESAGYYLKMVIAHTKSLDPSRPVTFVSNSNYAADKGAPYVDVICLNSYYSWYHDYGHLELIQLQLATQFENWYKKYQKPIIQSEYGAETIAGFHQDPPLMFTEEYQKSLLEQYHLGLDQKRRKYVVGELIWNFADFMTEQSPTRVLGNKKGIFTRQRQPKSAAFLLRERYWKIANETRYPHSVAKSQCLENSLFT

Assay [2] addresses T1, human β-glucuronidase. The source holds these as a separate data set.
In assay [3] the target is B1.

A word on the Kd: it is the constant that tells how readily two partners part at equilibrium. As for B1, the Kd with human prothrombin is more than 2500 nM; with human β-glucuronidase [1], 10 ± 2 nM.

B2: Dom1-3HisK215A (domain or fragment, bovine, UniProt P08169 45-476, looked up)
chain: AAGTQGAEFPELCSYTWEAVDTKNNMLYKINICGNMGVAQCGPSSAVCMHDLKTDSFHSVGDSLLKTASRSLLEFNTTVNCKQQNHKIQSSITFLCGKTLGTPEFVTATDCVHYFEWRTTAACKKNIFKANKEVPCYAFDRELKKHDLNPLIKTSGAYLVDDSDPDTSLFINVCRDIEVLRASSPQVRVCPTGAAACLVRGDRAFDVGRPQEGLALVSNDRLVLSYVKEGAGQPDFCDGHSPAVTITFVCPSERREGTIPKLTAKSNCRFEIEWVTEYACHRDYLESRSCSLSSAQHDVAVDLQPLSRVEASDSLFYTSEADEYTYYLSICGGSQAPICNKKDAAVCQVKKADSTQVKVAGRPQNLTLRYSDGDLTLIYFGGEECSSGFQRMSVINFECNQTAGNNGRGAPVFTGEVDCTYFFTWDTKYACV
With B2, the Kd in the assay with human β-glucuronidase [2] was found to be 18 ± 2 nM.

B3: Dom1-3HisK53A (domain or fragment, bovine, UniProt P08169 45-476, looked up)
chain: AAGTQGAEFPELCSYTWEAVDTKNNMLYKINICGNMGVAQCGPSSAVCMHDLATDSFHSVGDSLLKTASRSLLEFNTTVNCKQQNHKIQSSITFLCGKTLGTPEFVTATDCVHYFEWRTTAACKKNIFKANKEVPCYAFDRELKKHDLNPLIKTSGAYLVDDSDPDTSLFINVCRDIEVLRASSPQVRVCPTGAAACLVRGDRAFDVGRPQEGLKLVSNDRLVLSYVKEGAGQPDFCDGHSPAVTITFVCPSERREGTIPKLTAKSNCRFEIEWVTEYACHRDYLESRSCSLSSAQHDVAVDLQPLSRVEASDSLFYTSEADEYTYYLSICGGSQAPICNKKDAAVCQVKKADSTQVKVAGRPQNLTLRYSDGDLTLIYFGGEECSSGFQRMSVINFECNQTAGNNGRGAPVFTGEVDCTYFFTWDTKYACV
As to B3, in the assay with human β-glucuronidase [2], the affinity, expressed as Kd, was 17 ± 2 nM.

B4: Dom1-3HisK23A (domain or fragment, bovine, UniProt P08169 45-476, looked up)
chain: AAGTQGAEFPELCSYTWEAVDTANNMLYKINICGNMGVAQCGPSSAVCMHDLKTDSFHSVGDSLLKTASRSLLEFNTTVNCKQQNHKIQSSITFLCGKTLGTPEFVTATDCVHYFEWRTTAACKKNIFKANKEVPCYAFDRELKKHDLNPLIKTSGAYLVDDSDPDTSLFINVCRDIEVLRASSPQVRVCPTGAAACLVRGDRAFDVGRPQEGLKLVSNDRLVLSYVKEGAGQPDFCDGHSPAVTITFVCPSERREGTIPKLTAKSNCRFEIEWVTEYACHRDYLESRSCSLSSAQHDVAVDLQPLSRVEASDSLFYTSEADEYTYYLSICGGSQAPICNKKDAAVCQVKKADSTQVKVAGRPQNLTLRYSDGDLTLIYFGGEECSSGFQRMSVINFECNQTAGNNGRGAPVFTGEVDCTYFFTWDTKYACV
B4: the Kd with human β-glucuronidase [2] came out at 14 ± 1 nM.

B5: Dom1-3HisK125A (domain or fragment, bovine, UniProt P08169 45-476, looked up)
chain: AAGTQGAEFPELCSYTWEAVDTKNNMLYKINICGNMGVAQCGPSSAVCMHDLKTDSFHSVGDSLLKTASRSLLEFNTTVNCKQQNHKIQSSITFLCGKTLGTPEFVTATDCVHYFEWRTTAACKANIFKANKEVPCYAFDRELKKHDLNPLIKTSGAYLVDDSDPDTSLFINVCRDIEVLRASSPQVRVCPTGAAACLVRGDRAFDVGRPQEGLKLVSNDRLVLSYVKEGAGQPDFCDGHSPAVTITFVCPSERREGTIPKLTAKSNCRFEIEWVTEYACHRDYLESRSCSLSSAQHDVAVDLQPLSRVEASDSLFYTSEADEYTYYLSICGGSQAPICNKKDAAVCQVKKADSTQVKVAGRPQNLTLRYSDGDLTLIYFGGEECSSGFQRMSVINFECNQTAGNNGRGAPVFTGEVDCTYFFTWDTKYACV
On to B5, for which the Kd in the assay with human β-glucuronidase [2] came out at 26 ± 2 nM. Against the preceding molecule, the Kd is about 1.9-fold higher.

B6: Dom1-3HisR118A (domain or fragment, bovine, UniProt P08169 45-476, looked up)
chain: AAGTQGAEFPELCSYTWEAVDTKNNMLYKINICGNMGVAQCGPSSAVCMHDLKTDSFHSVGDSLLKTASRSLLEFNTTVNCKQQNHKIQSSITFLCGKTLGTPEFVTATDCVHYFEWATTAACKKNIFKANKEVPCYAFDRELKKHDLNPLIKTSGAYLVDDSDPDTSLFINVCRDIEVLRASSPQVRVCPTGAAACLVRGDRAFDVGRPQEGLKLVSNDRLVLSYVKEGAGQPDFCDGHSPAVTITFVCPSERREGTIPKLTAKSNCRFEIEWVTEYACHRDYLESRSCSLSSAQHDVAVDLQPLSRVEASDSLFYTSEADEYTYYLSICGGSQAPICNKKDAAVCQVKKADSTQVKVAGRPQNLTLRYSDGDLTLIYFGGEECSSGFQRMSVINFECNQTAGNNGRGAPVFTGEVDCTYFFTWDTKYACV
B6 came in with a Kd with human β-glucuronidase [2] of 12 ± 1 nM. Compared with the last molecule, the Kd is about 2.2-fold lower.

B7: Dom1-3HisK132A (domain or fragment, bovine, UniProt P08169 45-476, looked up)
chain: AAGTQGAEFPELCSYTWEAVDTKNNMLYKINICGNMGVAQCGPSSAVCMHDLKTDSFHSVGDSLLKTASRSLLEFNTTVNCKQQNHKIQSSITFLCGKTLGTPEFVTATDCVHYFEWRTTAACKKNIFKANAEVPCYAFDRELKKHDLNPLIKTSGAYLVDDSDPDTSLFINVCRDIEVLRASSPQVRVCPTGAAACLVRGDRAFDVGRPQEGLKLVSNDRLVLSYVKEGAGQPDFCDGHSPAVTITFVCPSERREGTIPKLTAKSNCRFEIEWVTEYACHRDYLESRSCSLSSAQHDVAVDLQPLSRVEASDSLFYTSEADEYTYYLSICGGSQAPICNKKDAAVCQVKKADSTQVKVAGRPQNLTLRYSDGDLTLIYFGGEECSSGFQRMSVINFECNQTAGNNGRGAPVFTGEVDCTYFFTWDTKYACV
The molecule B7 gave a Kd in the assay with human β-glucuronidase [2] of 35 ± 4 nM.

B8: Dom1-3HisK82A (domain or fragment, bovine, UniProt P08169 45-476, looked up)
chain: AAGTQGAEFPELCSYTWEAVDTKNNMLYKINICGNMGVAQCGPSSAVCMHDLKTDSFHSVGDSLLKTASRSLLEFNTTVNCAQQNHKIQSSITFLCGKTLGTPEFVTATDCVHYFEWRTTAACKKNIFKANKEVPCYAFDRELKKHDLNPLIKTSGAYLVDDSDPDTSLFINVCRDIEVLRASSPQVRVCPTGAAACLVRGDRAFDVGRPQEGLKLVSNDRLVLSYVKEGAGQPDFCDGHSPAVTITFVCPSERREGTIPKLTAKSNCRFEIEWVTEYACHRDYLESRSCSLSSAQHDVAVDLQPLSRVEASDSLFYTSEADEYTYYLSICGGSQAPICNKKDAAVCQVKKADSTQVKVAGRPQNLTLRYSDGDLTLIYFGGEECSSGFQRMSVINFECNQTAGNNGRGAPVFTGEVDCTYFFTWDTKYACV
For the molecule B8, the Kd in the assay with human β-glucuronidase [2] was determined as 17 ± 2 nM.

B9: Dom1-3HisK98A (domain or fragment, bovine, UniProt P08169 45-476, looked up)
chain: AAGTQGAEFPELCSYTWEAVDTKNNMLYKINICGNMGVAQCGPSSAVCMHDLKTDSFHSVGDSLLKTASRSLLEFNTTVNCKQQNHKIQSSITFLCGATLGTPEFVTATDCVHYFEWRTTAACKKNIFKANKEVPCYAFDRELKKHDLNPLIKTSGAYLVDDSDPDTSLFINVCRDIEVLRASSPQVRVCPTGAAACLVRGDRAFDVGRPQEGLKLVSNDRLVLSYVKEGAGQPDFCDGHSPAVTITFVCPSERREGTIPKLTAKSNCRFEIEWVTEYACHRDYLESRSCSLSSAQHDVAVDLQPLSRVEASDSLFYTSEADEYTYYLSICGGSQAPICNKKDAAVCQVKKADSTQVKVAGRPQNLTLRYSDGDLTLIYFGGEECSSGFQRMSVINFECNQTAGNNGRGAPVFTGEVDCTYFFTWDTKYACV
Turning to B9, the Kd with human β-glucuronidase [2] was 17 ± 1 nM.

B10: bovine prothrombin (natural protein)
chain: not shown
modifications: plasma-purified zymogen; gamma-carboxyglutamate in Gla domain, N-glycosylated, disulfides (by convention, not given)
Turning to B10, in assay [3], the Kd is more than 2500 nM.
